Assay results published in the RNAGym collection of RNA variant scans (doi:10.1073/pnas.2313332121).
This sample holds only a part of the variants without activity.

B1: TPR 5TU (parent)
chain: GGAUCUUCUCGAUCUAACAAAAAAGACAAAUCUGCCACAAAGCUUGAGAGCAUCUUCGGAUGCAGAGGCGGCAGCCUUCGGUGGCGCGAUAGCGCCAACGUUCUCAACUAUGACACGCAAAACGCGUGCUCCGUUGAAUGGAGUUUAUCAUG

Variants of: B1
Assay: polymerase ribozyme fitness, log enrichment relative to wild type (log ratio); higher = more active; in vitro selection for triplet polymerase activity
Method in brief: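 Mutant libraries of both subunits of a heterodimeric triplet polymerase ribozyme were PCR-built, transcribed, and selected once in triplicate, with frozen incubation at −7 °C and capture of gel-excised extended constructs on streptavidin beads before RT-PCR. Illumina sequencing of input and output libraries was filtered to genotypes with ≥10 input reads and ≥1 read per output. Fitness is the logarithm of genotype enrichment over wild-type enrichment, using inverse-variance-weighted replicate averages. The logarithm is base 2.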

Variant | polymerase ribozyme fitness (log ratio)
G59A U127A | -3.81
A60C A91U | ≤ -4.2
G59C C103U | 0.229
G59A U61C | -0.735
A60G A91G | -2.73
A60U C85U | -1.46
A60U C85G | -3.14
A60U C85A | -3.04
G59A A122U | 0.148
A60G G83A G133C | -1
G59C G92U C105A C125A C149U | ≤ -4.2
G59U A120G | -0.485
G59A G94A | -0.522
A60G G143U | -1.77
A60G C96U U101G G128A | -3.75
A60G G88C A106U U134A G140C G143C | ≤ -4.2
G59A C87U | -1.42
A60G G94U | -0.467
G59A C75G A122U C129A G143U | -3.5
A60C C85A G124C | -2.54
G59U C85G A119U G128A | -4.19

Variant | polymerase ribozyme fitness (log ratio)
G59A A106G U134A | -2.03
G59C A60U | 0.153
A60G C87A U109A C132G | ≤ -4.2
A60C C99G U101G | ≤ -4.2
A60C C96U A142C G143A | ≤ -4.2
G59A G92C | -2.78
A60G C116A | 1.26
G58U G94U G140U | -3.9
A60C G92U A97G | -2.29
G59A A64U C85A G92A U144C | ≤ -4.2
A60C U61A C69G G74A U146G A150C | ≤ -4.2
G59C C85G | -1.64
A60G U90A C95A G117A | -3.93
A60U C85G A89U | ≤ -4.2
G59A A60C G126A | -0.62
G59A A60C C79G G81A U101G C132A U146A | ≤ -4.2
G59C C75U A98U | -0.152
A60G A66C G94U C108U C125U U139C | -4
G59C G94C | -0.253
A60G C114U | -1.83
G59U G86U | -3.85

Variant | polymerase ribozyme fitness (log ratio)
G59A G133U G136C U148C | ≤ -4.2
G59C C69U C93G G100A G124U | ≤ -4.2
G59U G81A C85G A106C | -3.51
A60G C72U G124A | 0.612
A60G C85A | -0.96
G59C G83A C103U A122G | -0.809
A60G C95A U101C | 0.139
G59U A97C | -0.238
G59U G80A | -0.046
G59U A60C G83A C116U C118G | -2.5
G59C C87G | ≤ -4.2
A60G G100A U151G | ≤ -4.2
G59C G65C C76G U145G C149A | ≤ -4.2
A60C G84U | -2.22
A60U C87U U135C | -3.65
G59U A106G C114U | -1.65
G59C C93G A97U U127C A137G | ≤ -4.2
G59U A60G C93U | -3.87
G59A G84A | -2.24
G58U G83C | -0.165
G59C U109G | -0.84

Variant | polymerase ribozyme fitness (log ratio)
G59C U61A A64C | ≤ -4.2
G59U G67A G92U | -3.83
G59A A107U G126A | -3.68
A60G C85A U101G | -2.94
G59U C103U | -0.503
G59A C95U C103G | -2.47
G59C C96U A106G C132U U145C | -0.905
G59U A60U | -0.703
G59U G94A C118U A150G | -1.69
G59U A66G A91G G100U U134A G143A A147G A150C | ≤ -4.2
G59C A119U C149U | -0.775
A60C A73U | -3.54
G59C A60C C87G | ≤ -4.2
A60U C85G G92C U102G | ≤ -4.2
G59U C96U A121C G126A U146G | -2.76
A60G G71A C75A C93U C118G | ≤ -4.2
G59C G86U | -1.67
G59A G100C | ≤ -4.2
G59A A142G | -0.65
A60G A89C U104G C108G | ≤ -4.2
